The target in assay [1] is SCRM KiDoK peptide (Arabidopsis). In words: BLI; as a1 but analyte MPK6 preincubated with the small molecule kC9 (MPK6:kC9 1:1.5), 150-4.68 nM; biotinylated SCRM KiDoK peptide on streptavidin probes; 25°C; 1x PBS, 2% DMSO, 0.02 Tween 20, 0.1% BSA.
Assay [2] has the same target. The assay is described as follows: BLI; biotinylated SCRM KiDoK peptide (500 nM) loaded on streptavidin probes; MPK6 as analyte at 150-4.68 nM; without kC9; Octet Red96, 25°C; 1x PBS, 2% DMSO, 0.02 Tween 20, 0.1% BSA; 1:1 model, Kd from kobs with steady-state analysis.
The target in assay [3] is MPK6ΔNt (29 to 305) (Arabidopsis) (UniProt Q39026). In words: ITC; SCRM KiDoK peptide to MPK6ΔNt (29 to 305), without kC9; 25°C, Malvern PEAQ-ITC; PBS pH 7.4 with 2% DMSO.
Assay [4] has the same target. In words: ITC; SCRM KiDoK peptide to MPK6ΔNt (29 to 305) preincubated with the small molecule kC9; 25°C, Malvern PEAQ-ITC; PBS pH 7.4 with 2% DMSO.

With “MPK6ΔNt (29 to 305) (from UniProt Q39026 29-305) (domain or fragment)”, the Kd is 856 nM in assay [1] and 40.1 nM in assay [2].
Regarding SCRM KiDoK peptide, the Kd in assay [3] worked out at 43.4 nM; in assay [4], 1400 nM.

Source of the values: publication PMC11797554, “Chemical genetics reveals cross-regulation of plant developmental signaling by the immune peptide-receptor pathway” (Science Advances, 2024).
